This experiment deals with T1, Plasmalemma vesicle-associated protein (PV1), recombinant mouse (Mus musculus, UniProt Q91VC4).
T1 construct: plasmalemma vesicle-associated protein (PV1), mouse, recombinant; also called mouse PV1; recombinant mouse PV1
In words: SPR; ProteOn XPR36; mouse PV1 amine-coupled to a GLC chip at ~200 RU; antibodies injected at 100 μl/min; 25 °C, PBS pH 7.2; 1:1 Langmuir model. The following applies: both partners purified.

T1 sequence (Q91VC4 whole entry): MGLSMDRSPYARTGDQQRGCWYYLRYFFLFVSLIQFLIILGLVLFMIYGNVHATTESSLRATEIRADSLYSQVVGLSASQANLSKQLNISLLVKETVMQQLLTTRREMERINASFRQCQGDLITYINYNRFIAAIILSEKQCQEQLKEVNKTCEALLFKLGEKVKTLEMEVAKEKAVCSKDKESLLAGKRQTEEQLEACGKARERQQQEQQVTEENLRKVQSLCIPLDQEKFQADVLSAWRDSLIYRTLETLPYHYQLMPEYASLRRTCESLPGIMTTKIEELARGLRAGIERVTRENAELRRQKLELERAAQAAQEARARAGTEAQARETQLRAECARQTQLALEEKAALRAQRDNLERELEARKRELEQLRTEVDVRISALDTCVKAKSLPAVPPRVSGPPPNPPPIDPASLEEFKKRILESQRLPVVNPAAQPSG

B1: αPV1 IgG (de novo sequenced Meca32 variant as a human IgG1 chimeric antibody) (antibody, V domains shown)
VH: EVQLVESGGGLVQPGRSMKLSCAASGFTFSDYYMAWVRQAPKKGLEWVASISYEGNKTYYGDSVKGRFTISRDNAKSILYLQMNSLKSEDTATYYCARQSYSSYLFDYWGQGVM
VL: DIQMTQTPSSMSASLGERVTLSCGTSQGVNLFLNWYQQKPDGTIKPLIFFTSHLQSGVPSRFSGSGSGTAYSLTISSLEPEDFAVYYCQQYDSSPPTFGGGTKLYLK
notes: human IgG1 heavy-chain constant region (chimeric antibody); VL of the chosen Meca32 variant; light-chain constant region; Human IgG1 chimera of rat variable domains; also called anti-PV1 antibody; αPV1 mAb; source: HEK293F, transient, purified (protein A; SEC if necessary)
For the molecule B1, the Kd stood at 0.5 nM.

The values are drawn from paper PMC6405929, “Targeted drug delivery via caveolae-associated protein PV1 improves lung fibrosis” (Communications Biology, 2019).
